Test results reported in publication PMC5838229.

Biological target: Flag-DNAJC5 (secreted) (UniProt Q9H3Z4)
Assay: co-IP; conditioned medium of cells expressing Flag-DNAJC5 and HA-GFP1-10; Flag beads against control Sepharose beads; precipitated and unbound fractions analysed by immunoblotting

Sequence of UniProt Q9H3Z4 (Q9H3Z4 whole entry): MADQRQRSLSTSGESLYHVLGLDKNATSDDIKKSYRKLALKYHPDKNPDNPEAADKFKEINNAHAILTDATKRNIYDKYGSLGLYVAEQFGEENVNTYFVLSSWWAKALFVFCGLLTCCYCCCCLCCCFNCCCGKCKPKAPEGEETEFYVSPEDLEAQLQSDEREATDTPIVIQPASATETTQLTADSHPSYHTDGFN

Work on “HA-GFP1-10 (secreted) (domain or fragment)” yielded a percent co-depleted with Flag-DNAJC5 greater than 60%.
